From IntAct's records for PubMed 22913516

Molecular target: kcc2b_mouse Camk2b (UniProt P28652)
Sequence (P28652 whole entry): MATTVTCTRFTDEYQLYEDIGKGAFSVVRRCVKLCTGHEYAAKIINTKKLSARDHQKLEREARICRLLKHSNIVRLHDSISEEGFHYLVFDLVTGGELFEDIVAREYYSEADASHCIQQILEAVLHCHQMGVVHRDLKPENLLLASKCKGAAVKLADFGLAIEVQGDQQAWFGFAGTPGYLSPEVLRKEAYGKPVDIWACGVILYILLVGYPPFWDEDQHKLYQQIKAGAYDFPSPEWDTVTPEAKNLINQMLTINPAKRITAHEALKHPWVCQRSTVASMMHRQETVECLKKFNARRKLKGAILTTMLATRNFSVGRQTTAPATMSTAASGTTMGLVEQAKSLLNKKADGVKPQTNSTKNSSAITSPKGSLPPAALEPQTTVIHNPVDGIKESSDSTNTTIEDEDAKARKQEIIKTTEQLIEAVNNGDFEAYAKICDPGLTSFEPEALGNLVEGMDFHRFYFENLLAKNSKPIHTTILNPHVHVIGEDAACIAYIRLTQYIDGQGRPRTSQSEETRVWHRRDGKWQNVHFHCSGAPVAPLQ

## Ryanodine receptor 1 (Oryctolagus cuniculus (Rabbit)), P11716 S2843A
  effect of a mutation on the interaction: decreasing interaction
